Assay results as given in US20090155256A1.

Biological target: His-tagged domains of human FcγRII (R&D Systems, Cat # 1330-CD) (human) (UniProt P12318)
Assay: SPR (Biacore 3000), His-tagged receptor captured by penta-His antibody on CM5 chip, antibody injected; RU relative to control

**Q.** “Bapineuzumab (humanized 3D6, human IgG1, no Fc mutations) (antibody)” was tested. Which Relative Binding Capability (%) did it give?
**A.** Its Relative Binding Capability (%) is 100%.
